Results from patent publication US20160250307A1 (IMMATICS BIOTECHNOLOGIES, published 2016).

molecular target: HLA-A*02 (human); experiment: UV-ligand exchange, anti-b2m ELISA; grade: exchange yield >=50%

Peptide exchange yield, 50 to 75%:
KLDNNLDSV
GLAPGGLAVV
RLFPDGIVTV
RLPDIPLRQV
ALLEMDARL
ALLNQHYQV
KLSEAVTSV
RMSDVVKGV
QLTPVLVSV
VLSQVYSKV
RLFEENDVNL
HLAKVTAEV
TLAAIIHGA
SQADVIPAV
YLWDLDHGFAGV
TVMDIDTSGTFNV
SLLSPEHLQYL
TLYALSHAV
TLLDSPIKV
YAFPKSITV
SILDIVTKV
RLAAFYSQV
QLLPNLRAV
SMGDHLWVA
YLITGNLEKL
LLADIGGDPFAA
SLWEGGVRGV
RMLIKLLEV
RLLDEQFAV
YLDDEKNWGL
RLTESVLYL
YLDKNLTVSV
SVWFGPKEV
VVLDDKDYFL
SLWSVARGV
RLLDVLAPLV
ALHEEVVGV
ALSSKPAEV
ALLGKIEKV
TLLKKISEA
LLHEENFSV
RILPKVLEV
NLASFIEQVAV
KLYDLELIV
SICNGVPMV
LLIDDEYKV
RLPPDTLLQQV
KLTDHLKYV
NVFDGLVRV
